“Also recorded” adds a separate entry of the source.
Columns and labels:
S100A4 = molecular target: T1, S100A4 (Homo sapiens, UniProt P26447); assay: Quin-2 fluorescence, Ca^2+ dissociation from S100A4 in the presence of target peptides; type: binding
T1 construct: We used full-length S100A4 for this analysis; made in house; host or cells: Escherichia coli BL21(DE3)
Protocol: Ca^2+ dissociation measurements for wild-type S100A4, using Quin-2 as described above, were repeated as a control for the effect of target peptides on this process. On mixing 10 μM S100A4 in the presence of Ca^2+ with 100 μM Quin-2, the observed profile was fitted to a single exponential with kobs = 17 s^− 1 (Fig. 5a; cf. k− 1 in Scheme 1).
Fig. 5 Dissociation of Ca^2+ from S100A4 in the absence and in the presence of target peptides monitored using Quin-2 fluorescence. (a) Mixed with 100 μM Quin-2 was 10 μM S100A4 + 50 μM Ca^2+ (stopped-flow reaction chamber concentrations). A superposed fit to a single exponential yields kobs = 17 s^− 1. […] (d) As in (a), but with 2.5 μM M200 premixed with 5 μM S100A4. A biphasic exponential fit yielded rate constants of 13 s^− 1 (A = 26%) and 0.30 s^− 1 (A = 74%). […] Experiments were carried out in either 20 mM NaCl, 20 mM Tris, 1 mM DTT, and 100 μM Ca^2+ at pH 7.5 and 20 °C (a and b; cf. Malashkevich et al.[17]), or 100 mM NaCl, 10 mM Hepes, and 100 μM Ca^2+ at pH 7.5 and 20 °C (c and d). […] Rate constants were unaffected by the inclusion of 1 mM Mg^2+.
Stopped-flow measurements were carried out using an SX18-MV apparatus (Applied Photophysics Ltd., Leatherhead, UK) with a dead time of 1.5 ms.[40] Records were generally captured on a logarithmic time base. Absorption (turbidity) measurements were usually recorded using a 10-mm pathlength, while fluorescence was recorded with a 2-mm pathlength for excitation and emission. The stated concentrations of components refer to the reaction chamber after mixing, unless otherwise indicated. Tyrosine fluorescence was excited at 280 nm, and the emission was collected through a UG11 bandpass filter plus a 305-nm longpass filter.[18] Fluorescein fluorescence was excited at 480 nm, and the emission was detected through a 515-nm longpass filter. Quin-2 fluorescence was measured by excitation at 336 nm, and emission was collected with a 455-nm longpass filter. For simultaneous recording of light scatter, a second channel was monitored through a UG11 filter. Rate constants were obtained by fitting to single-exponential or double-exponential functions using Kaleidagraph (Synergy Software) or Applied Photophysics Pro-Data software. Modeling of kinetic schemes was performed using Berkeley Madonna software.

[1] = CD / helical stability of M111; type: physicochemical; conditions: 0.05 mM protein
Protocol: CD spectra were measured on a JASCO J-715 spectropolarimeter equipped with a JASCO PTC-348WI temperature-controlled unit at 0.05 mM protein solutions using a 1-mm pathlength microcuvette.

[2] = increasing concentrations of M111

T1 sequence (P26447 whole entry): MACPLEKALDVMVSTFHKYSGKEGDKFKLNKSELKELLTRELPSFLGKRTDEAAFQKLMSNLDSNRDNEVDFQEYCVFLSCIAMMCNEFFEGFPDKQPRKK

fast-phase amplitude (S100A4; 5 μM M111, 10 μM S100A4): 6%
slow-phase amplitude (S100A4; 5 μM M111, 10 μM S100A4): 94%
slow-phase rate constant (S100A4; 5 μM M111, 10 μM S100A4, 50 μM Ca^2+, 100 μM Quin-2): 0.36 s⁻¹
fast-phase rate constant (S100A4; 5 μM M111, 10 μM S100A4, 50 μM Ca^2+, 100 μM Quin-2, residual unbound S100A4): 21 s⁻¹
slower release of Ca^2+ (S100A4; in presence of coiled-coil fragments): 0.3–0.5 s^− 1
fast-phase rate constant (S100A4; [2]): 20 s^− 1
slow-phase rate constant (S100A4; [2]): 0.4 s^− 1
Ca^2+ dissociation rate constant from complex (k− 3), comparison (S100A4; peptide–S100A4–Ca^2+ complex): 0.3 s^− 1
B1: M111: His-tagged human NM-MHC IIA residues 1850-1960, V1913I substitution (protein, UniProt P35579 1850-1960, looked up, variant V1913I)
chain: QVDDERRNAEQYKDQADKASTRLKQLKRQLEEAEEEAQRANASRRKLQRELEDATETADAMNREISSLKNKLRRGDLPFVVPRRMARKGAGDGSDEEVDGKADGAEAKPAE
modifications: His tag
notes: His-tagged human NM-MHC IIA residues 1850-1960, V1913I substitution
helical structure stability [1]: high helical content detected for the fragment by CD below 20 °C; also recorded: only marginally stable at 20 °C

Source: paper PMC3025356, “Mechanism of the Ca^2+-Dependent Interaction between S100A4 and Tail Fragments of Nonmuscle Myosin Heavy Chain IIA” (Journal of Molecular Biology, 2011)
